Legend:
[1] = target: DLL4 extracellular domain (R&D systems, catalog #1506-D4/CF) (UniProt Q9NR61); test: cell-based or functional assay
human Dll1 (human) [2] = target: human Dll1 (human) (UniProt O00548); test: FACS, 1 µg/ml, 293T cells with human Dll1
human Dll1 (human) [3] = target: human Dll1 (human) (UniProt O00548); test: FACS, 5 µg/ml, 293T cells with human Dll1
human Dll1 (human) [4] = target: human Dll1 (human) (UniProt O00548); test: FACS, 0.2 µg/ml, 293T cells with human Dll1
human Dll1 (human) [5] = target: human Dll1 (human) (UniProt O00548); test: FACS, 5 µg/ml, 293T cells with human Dll1 vs mock
human Dll1 (human) [6] = target: human Dll1 (human) (UniProt O00548); test: FACS, 0.2 µg/ml, 293T cells with human Dll1 vs mock
human Dll1 (human) [7] = target: human Dll1 (human) (UniProt O00548); test: FACS, 1 µg/ml, 293T cells with human Dll1 vs mock
human Jagged1 (human) [8] = target: human Jagged1 (human) (UniProt P78504); test: FACS, 0.2 µg/ml, 293T cells with human Jagged1
human Jagged1 (human) [9] = target: human Jagged1 (human) (UniProt P78504); test: FACS, 5 µg/ml, 293T cells with human Jagged1
human Jagged1 (human) [10] = target: human Jagged1 (human) (UniProt P78504); test: FACS, 1 µg/ml, 293T cells with human Jagged1 vs mock
human Jagged1 (human) [11] = target: human Jagged1 (human) (UniProt P78504); test: FACS, 0.2 µg/ml, 293T cells with human Jagged1 vs mock
human Jagged1 (human) [12] = target: human Jagged1 (human) (UniProt P78504); test: FACS, 5 µg/ml, 293T cells with human Jagged1 vs mock
human Jagged1 (human) [13] = target: human Jagged1 (human) (UniProt P78504); test: FACS, 1 µg/ml, 293T cells with human Jagged1

human Jagged1 (human), sequence (P78504 34-1218): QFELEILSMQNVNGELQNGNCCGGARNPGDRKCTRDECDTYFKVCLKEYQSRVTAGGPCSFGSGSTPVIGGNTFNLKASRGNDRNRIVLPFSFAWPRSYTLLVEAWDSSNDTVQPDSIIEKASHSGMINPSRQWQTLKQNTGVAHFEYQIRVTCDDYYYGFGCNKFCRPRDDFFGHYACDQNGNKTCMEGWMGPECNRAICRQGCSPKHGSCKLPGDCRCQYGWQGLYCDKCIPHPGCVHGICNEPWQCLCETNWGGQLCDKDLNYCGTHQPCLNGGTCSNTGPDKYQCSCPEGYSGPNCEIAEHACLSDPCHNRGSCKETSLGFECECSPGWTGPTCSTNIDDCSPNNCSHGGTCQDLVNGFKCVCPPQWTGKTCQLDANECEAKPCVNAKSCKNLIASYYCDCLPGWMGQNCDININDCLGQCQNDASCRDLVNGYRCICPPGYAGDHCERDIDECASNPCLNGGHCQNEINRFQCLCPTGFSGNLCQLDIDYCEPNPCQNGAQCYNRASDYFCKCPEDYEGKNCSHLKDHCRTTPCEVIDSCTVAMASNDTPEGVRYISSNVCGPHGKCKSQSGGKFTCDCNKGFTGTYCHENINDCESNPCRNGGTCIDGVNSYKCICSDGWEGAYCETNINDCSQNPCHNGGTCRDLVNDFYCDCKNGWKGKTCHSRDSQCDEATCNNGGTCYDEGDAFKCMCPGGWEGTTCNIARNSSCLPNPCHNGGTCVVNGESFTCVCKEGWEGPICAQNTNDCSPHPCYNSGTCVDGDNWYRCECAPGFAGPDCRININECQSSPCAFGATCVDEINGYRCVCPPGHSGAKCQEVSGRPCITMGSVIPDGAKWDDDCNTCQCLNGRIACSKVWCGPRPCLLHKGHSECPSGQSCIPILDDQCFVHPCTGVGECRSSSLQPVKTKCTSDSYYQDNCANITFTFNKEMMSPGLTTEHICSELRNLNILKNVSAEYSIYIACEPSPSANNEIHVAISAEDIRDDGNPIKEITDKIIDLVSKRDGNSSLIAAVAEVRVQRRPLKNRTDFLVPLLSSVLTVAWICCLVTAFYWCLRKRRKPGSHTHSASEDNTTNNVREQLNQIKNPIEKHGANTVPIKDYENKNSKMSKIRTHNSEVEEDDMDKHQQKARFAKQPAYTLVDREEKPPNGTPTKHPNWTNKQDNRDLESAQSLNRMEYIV
DLL4 extracellular domain (R&D systems, catalog #1506-D4/CF), sequence (Q9NR61 27-529 limits assumed): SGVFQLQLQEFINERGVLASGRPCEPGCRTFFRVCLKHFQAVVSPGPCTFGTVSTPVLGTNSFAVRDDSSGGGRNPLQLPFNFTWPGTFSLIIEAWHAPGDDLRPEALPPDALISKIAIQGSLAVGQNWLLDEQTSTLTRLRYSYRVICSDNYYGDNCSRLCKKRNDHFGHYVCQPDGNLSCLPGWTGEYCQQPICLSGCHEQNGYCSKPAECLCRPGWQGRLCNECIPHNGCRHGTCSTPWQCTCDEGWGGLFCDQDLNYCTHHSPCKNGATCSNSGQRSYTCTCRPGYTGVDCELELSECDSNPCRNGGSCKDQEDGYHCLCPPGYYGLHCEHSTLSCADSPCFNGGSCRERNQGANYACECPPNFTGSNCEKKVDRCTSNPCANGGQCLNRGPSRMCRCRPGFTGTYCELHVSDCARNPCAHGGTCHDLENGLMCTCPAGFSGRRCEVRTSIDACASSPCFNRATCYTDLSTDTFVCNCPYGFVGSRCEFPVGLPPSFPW
human Dll1 (human), sequence (O00548 18-723): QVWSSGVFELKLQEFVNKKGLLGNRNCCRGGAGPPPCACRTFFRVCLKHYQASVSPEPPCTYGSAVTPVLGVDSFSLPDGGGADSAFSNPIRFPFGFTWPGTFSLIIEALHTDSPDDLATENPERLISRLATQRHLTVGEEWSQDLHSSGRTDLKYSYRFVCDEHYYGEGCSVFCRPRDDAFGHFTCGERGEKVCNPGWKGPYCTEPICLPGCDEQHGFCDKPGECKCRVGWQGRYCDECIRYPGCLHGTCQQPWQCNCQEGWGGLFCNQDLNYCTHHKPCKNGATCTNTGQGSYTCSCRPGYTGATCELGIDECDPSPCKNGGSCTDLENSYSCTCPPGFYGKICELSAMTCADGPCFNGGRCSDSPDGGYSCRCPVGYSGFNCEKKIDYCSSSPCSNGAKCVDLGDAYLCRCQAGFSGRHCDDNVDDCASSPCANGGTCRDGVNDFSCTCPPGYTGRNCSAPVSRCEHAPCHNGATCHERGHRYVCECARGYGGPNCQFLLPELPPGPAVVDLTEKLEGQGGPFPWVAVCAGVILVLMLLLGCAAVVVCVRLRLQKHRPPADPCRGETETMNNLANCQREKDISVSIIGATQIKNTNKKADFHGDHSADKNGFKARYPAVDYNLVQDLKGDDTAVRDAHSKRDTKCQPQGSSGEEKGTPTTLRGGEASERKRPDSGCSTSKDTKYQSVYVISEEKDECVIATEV

% inhibition 1 µg/ml, AVERAGE (HUVEC proliferation on coated DLL4) [1] [%]	% inhibition 1 µg/ml, N = 1 (HUVEC proliferation on coated DLL4) [1] [%]	% inhibition 1 µg/ml, N = 2 (HUVEC proliferation on coated DLL4) [1] [%]	% inhibition 10 µg/ml, AVERAGE (HUVEC proliferation on coated DLL4) [1] [%]	% inhibition 10 µg/ml, N = 1 (HUVEC proliferation on coated DLL4) [1] [%]	% inhibition 10 µg/ml, N = 2 (HUVEC proliferation on coated DLL4) [1] [%]	Substance	also measured
9	18	0	10	11	9	Control IgG2 (antibody)	–
11	14	8	2	6	-3	Control IgG4 (antibody)	–
–	–	–	–	–	–	Goat anti-human Dll1 antibody (R&D systems cat #AF1818)	Dll1/293T X Geo mean (human Dll1 (human) [2]): 1240; Dll1/293T X Geo mean (human Dll1 (human) [3]): 1840; Dll1/293T X Geo mean (human Dll1 (human) [4]): 565; Dll1/mock ratio (human Dll1 (human) [5]): 7.68; Dll1/mock ratio (human Dll1 (human) [6]): 6.94; Dll1/mock ratio (human Dll1 (human) [7]): 6.33
–	–	–	–	–	–	Mouse anti-human Jagged 1 antibody (R&D systems, catalog #mAB1277)	Jagged1/293T X Geo mean (human Jagged1 (human) [8]): 50.7; Jagged1/293T X Geo mean (human Jagged1 (human) [9]): 196; Jagged1/mock ratio (human Jagged1 (human) [10]): 3.94; Jagged1/mock ratio (human Jagged1 (human) [11]): 3.38; Jagged1/mock ratio (human Jagged1 (human) [12]): 4.29; Jagged1/293T X Geo mean (human Jagged1 (human) [13]): 119

From patent US20100196385A1
